Kd and fold lower affinity than PALI1-K1219me3 and PALI1-K1241me3 data for seven substances are collected here from article doi:10.1101/2020.05.28.122556.

In assay [1] the target is EED (amino acids 40-441) (human) (UniProt O75530). Description: fluorescence polarisation. On the technique in general: In fluorescence polarisation assays a small probe gives low polarisation when free and higher when bound to something large.
Assay [2] concerns the target 5-carboxyfluorescein (5-FAM, single isomer) labelled JARID2-K116me3 peptide. Description: fluorescence polarisation.

Sequence of EED (amino acids 40-441) (human) (O75530 40-441): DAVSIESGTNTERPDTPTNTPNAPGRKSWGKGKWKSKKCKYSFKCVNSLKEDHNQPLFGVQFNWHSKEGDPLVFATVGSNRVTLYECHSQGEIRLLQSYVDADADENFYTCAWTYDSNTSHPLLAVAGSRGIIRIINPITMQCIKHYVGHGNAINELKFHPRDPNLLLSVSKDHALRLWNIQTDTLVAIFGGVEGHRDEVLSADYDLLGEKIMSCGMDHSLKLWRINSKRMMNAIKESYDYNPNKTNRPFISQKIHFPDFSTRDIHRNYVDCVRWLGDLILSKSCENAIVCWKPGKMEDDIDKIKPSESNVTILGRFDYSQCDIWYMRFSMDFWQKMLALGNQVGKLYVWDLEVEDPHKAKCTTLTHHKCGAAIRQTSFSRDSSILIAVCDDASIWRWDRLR
Sequence of EED (amino acids 40-441) (O75530 40-441): as above

A word on the Kd: it is the equilibrium constant for the complex coming apart. A higher Kd goes with a looser complex. For H3K27me3 peptide, in assay [1], the Kd worked out at 41.3 µM.
On to PALI1-K1241me3 peptide, for which the Kd in assay [1] amounted to 8.47 µM.
As to PALI1-K1241me2 peptide, the Kd in assay [1] was 18.8 µM.
PALI1-K1214me3 peptide registered a fold lower affinity than PALI1-K1219me3 and PALI1-K1241me3 in assay [1] of 4 fold.
With “EED (amino acids 40-441) (from UniProt O75530-1 40-441) (domain or fragment)”, the Kd in assay [2] stood at 8.07 µM.
Consider PALI1-K1219me3 peptide, for which the Kd in assay [1] amounted to 7.53 µM. That is a single-digit micromolar value.
Same read-out and setting: under PALI1-K1241me1 peptide stands 240 µM.
